Results on 2 molecules are retold here after article PMC12086512 (Protein Science : A Publication of the Protein Society, 2025).

In experiment [1] the target is full-length p67 of Theileria parva with a C-terminal His-tag (Theileria parva, strain not told, UniProt Q4MZ78). As to the kind of experiment: BLI.
The target in another experiment is ubiquitin (Homo sapiens (assumed; species not …, UniProt P0CG48). As to the kind of experiment: ELISA.
Experiment [2] concerns the target His-p67C (p67 residues 572-651) (Theileria parva, strain not told, UniProt Q4MZ78). As to the kind of experiment: ELISA. Background: An ELISA detects its analyte on a solid surface through an enzyme-linked reagent.
The next experiment addresses bovine serum albumin (Bos taurus, UniProt P02769). As to the kind of experiment: ELISA.
Experiment [3] addresses T1, p67C^1 (p67 residues 572-612) (Theileria parva, UniProt Q4MZ78).
T1 chain: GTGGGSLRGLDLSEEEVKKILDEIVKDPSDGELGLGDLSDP
As to the kind of experiment: ELISA.

Another experiment deals with the fusion tag (GST) (Schistosoma japonicum (assumed, usual …, UniProt P08515 = GST)). As to the kind of experiment: ELISA.

Sequence of bovine serum albumin (P02769 25-607): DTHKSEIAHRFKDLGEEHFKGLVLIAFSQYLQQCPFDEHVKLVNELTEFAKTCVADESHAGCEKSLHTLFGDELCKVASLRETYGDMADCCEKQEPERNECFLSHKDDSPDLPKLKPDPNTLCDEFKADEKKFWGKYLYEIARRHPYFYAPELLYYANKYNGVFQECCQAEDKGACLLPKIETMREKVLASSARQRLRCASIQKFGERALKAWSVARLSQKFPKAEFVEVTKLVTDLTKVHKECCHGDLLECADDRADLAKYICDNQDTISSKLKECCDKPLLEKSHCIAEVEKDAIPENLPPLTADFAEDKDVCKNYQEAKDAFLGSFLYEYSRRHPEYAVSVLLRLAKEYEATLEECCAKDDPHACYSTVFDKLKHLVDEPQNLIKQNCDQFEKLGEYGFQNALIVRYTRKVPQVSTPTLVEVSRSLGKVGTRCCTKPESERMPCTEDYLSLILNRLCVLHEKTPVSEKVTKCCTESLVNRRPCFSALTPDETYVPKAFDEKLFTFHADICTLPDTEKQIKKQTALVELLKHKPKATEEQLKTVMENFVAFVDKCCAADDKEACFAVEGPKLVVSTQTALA

B1: Fab B11 (Fab, V domains shown)
VH: EVQLVESGGGLVQPGGSLRLSCAASGFNISSSSIHWVRQAPGKGLEWVASISPYYSSTSYADSVKGRFTISADTSKNTAYLQMNSLRAEDTAVYYCARGPGYAMDYWGQGTLVTVSS
VL: DIQMTQSPSSLSASVGDRVTITCRASQSVSSAVAWYQQKPGKAPKLLIYSASSLYSGVPSRFSGSRSGTDFTLTISSLQPEDFATYYCQQYYYAPITFGQGTKVEIK
On to B1, for which the Kd – broadly, a measure of binding affinity in units of concentration – in experiment [1] is 79 nM. Also, the binding result with ubiquitin is listed as “no binding”; with bovine serum albumin, “no binding”; in experiment [3] it was “binds”. For the same molecule, the EC50 (usually the concentration needed to bring the measured effect to its halfway point) in experiment [2] came to 25 nM.

B2: Fab B11 displayed on phage (Fab, V domains shown)
VH: B1 VH
VL: B1 VL
In the case of B2, in the experiment with the fusion tag (GST), the binding result is on record as “no binding”.
